The target in assay [1] is T1, Human CD3 on Jurkat cells (human, UniProt P07766 23-207; P09693 23-182; P04234 22-171). The assay is described as follows: cell-based or functional assay.
In assay [2] the target is T2, Monkey CD3 on cynomolgus HSC-F cells (cynomolgus monkey, UniProt Q95LI5 22-198; Q95LI7 23-181; Q95LI8 22-171).
T2 construct: whole, on cells; also called Monkey CD3-expressing cynomolgus HSC-F cells; cynomolgus monkey CD3-expressing HSC-F cells
The experiment in a line: flow cytometry on HSC-F cells. For orientation: Flow cytometry measures light scatter and fluorescence of single cells or particles in a stream.

The target of assay [3] is T1, Human CD3 on Jurkat cells. The experiment in a line: flow cytometry on Jurkat cells.
Assay [4] concerns the target T3, Human MSLN on MC38/MSLN stably transfected cells (Example 5) (human, UniProt Q13421 296-598).
T3 construct: whole, on cells; also called MC38/MSLN cells; huMSLN
The assay is described as follows: flow cytometry on MC38/MSLN cells.

Assay [5] concerns the target T4, human MSLN-his (Kaika Biotech, MSL-HM18D) (human, UniProt Q13421 296-580, limits assumed).
T4 construct: Bought protein; also called huMSLN-his; huMSLN; not shown: his tag
The experiment in a line: ELISA, coated huMSLN-his.

Assay [6] has as its target T5, monkey MSLN-his (Kaika Biotech, MSL-CM180) (monkey (cyno)).
T5 construct: Bought protein; also called cynoMSLN-his; cynoMSLN
The assay is described as follows: ELISA, coated cynoMSLN-his. (ELISA stands for enzyme-linked immunosorbent assay.)

Assay [7] concerns the target T6, cynoMSLN-Fc (Kaika Biotech, MSL-CM280) (cyno).
T6 construct: Bought protein
The assay is described as follows: SPR chip (Carterra), 3C6 captured by anti-DYKDDDDK, cynoMSLN-Fc in flow.

Assay [8] has as its target T7, mouse MSLN-his (Kaika Biotech, MSL-MM180) (mouse, UniProt Q61468 298-600, limits assumed).
T7 construct: Bought protein; also called muMSLN-his; muMSLN; not shown: his tag
T7 sequence (looked up): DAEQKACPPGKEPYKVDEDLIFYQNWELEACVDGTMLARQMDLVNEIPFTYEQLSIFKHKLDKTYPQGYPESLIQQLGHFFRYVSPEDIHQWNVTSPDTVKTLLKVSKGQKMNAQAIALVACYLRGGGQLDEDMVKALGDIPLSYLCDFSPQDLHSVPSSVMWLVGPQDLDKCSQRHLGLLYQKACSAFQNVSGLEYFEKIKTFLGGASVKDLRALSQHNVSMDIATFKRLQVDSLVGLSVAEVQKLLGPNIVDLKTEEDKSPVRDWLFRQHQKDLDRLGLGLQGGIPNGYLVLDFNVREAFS
The assay is described as follows: ELISA, coated muMSLN-his.

Assay [9] deals with T8, huMSLN-Fc (Kaika Biotech, MSL-HM280) (human, UniProt Q13421 296-580, limits assumed).
T8 construct: Bought protein; also called huMSLN-hFc; hFc-tagged human MSLN recombinant protein; not shown: Fc (hFc) tag
T8 sequence (Q13421 other isoform, or with tags, fused parts or gaps limits assumed): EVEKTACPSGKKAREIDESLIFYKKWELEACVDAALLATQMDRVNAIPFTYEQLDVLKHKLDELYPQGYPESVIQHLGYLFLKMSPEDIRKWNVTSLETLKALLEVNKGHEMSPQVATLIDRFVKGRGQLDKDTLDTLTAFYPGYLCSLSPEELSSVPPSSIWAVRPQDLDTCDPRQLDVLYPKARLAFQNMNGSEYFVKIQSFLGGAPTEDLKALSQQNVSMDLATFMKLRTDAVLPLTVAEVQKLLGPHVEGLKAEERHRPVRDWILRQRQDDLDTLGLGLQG
The assay is described as follows: SPR chip (Carterra), 3C6 captured by anti-DYKDDDDK, huMSLN-Fc in flow.

T3 sequence (Q13421 other isoform, or with tags, fused parts or gaps limits assumed): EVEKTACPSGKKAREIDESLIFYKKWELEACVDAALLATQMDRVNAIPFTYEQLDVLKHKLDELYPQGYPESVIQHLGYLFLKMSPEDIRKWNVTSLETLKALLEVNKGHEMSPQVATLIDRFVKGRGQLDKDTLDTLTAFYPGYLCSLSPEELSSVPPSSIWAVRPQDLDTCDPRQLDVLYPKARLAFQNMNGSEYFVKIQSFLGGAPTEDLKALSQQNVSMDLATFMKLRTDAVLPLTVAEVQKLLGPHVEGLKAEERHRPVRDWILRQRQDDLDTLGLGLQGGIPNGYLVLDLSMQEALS

B1: Control antibody 1-3C6 (bispecific antibody, human IgG1, lambda)
heavy: not shown
light: QAVVTQESALTTSPGETVTLTCRSSTGAVTTSNYANWVQEKPDHLFTGLIGGTNKRAPGVPARFSGSLIGDKAALTITGAQTEDEAIYFCALWYSNLWVFGGGTKLTVLGQPKAAPSVTLFPPSSEELQANKATLVCLISDFYPGAVTVAWKADSSPVKAGVETTTPSKQSNNKYAASSYLSLTPEQWKSHRSYSCQVTHEGSTVEKTVAPTECS
As a reminder, the EC50 is the midpoint of the concentration-response curve. For B1, the “EC50 (nM), activation of Jurkat-TIGIT-luc cells with MC38/MSLN tumor cells” value in assay [1] is 0.036 nM. In addition, the “EC50 (nM), activation of T cell activation signaling pathway, Jurkat-TIGIT-luc cells without tumor cells” value in [1] is 0.21 nM. In addition, the results for the EC50 in assay [2] and in assay [3] were 0.28 nM and 0.222 nM, respectively.

B2: MSLN single-domain antibody 3C6 (VHH)
VHH: EVQLVESGGGLVQAGESLRLSCAVSGNIGSIRHMGWHRQDPGKERELVATITTVGTTYYANFVKGRFTISRDNAKNTVYLQMNSLKPEDTGVYYCRATAHPTDYWGQGTQVTVSS
notes: also called MSLN VHH
Usually Kd stands for the concentration at which binding is half-saturated. Broadly, the koff is a measure of how fast the partners let go of each other. For orientation: kon means a measure of how fast the partners come together. With B2, the EC50 is 11.8 nM in assay [4], 0.463 nM in [5], 0.788 nM in assay [6] and 28.6 nM in assay [8]. In addition, the Kd in assay [7] is 1.04 nM; in assay [9], 5.66 nM. Also, the figures for the koff in assay [7] and in assay [9] were 4.69e-05 s⁻¹ and 0.000304 s⁻¹, respectively. In addition, the kon is 45300 M⁻¹ s⁻¹ in assay [7] and 53600 M⁻¹ s⁻¹ in assay [9].

The record behind these values is patent US20250059278A1 (SICHUAN HUIYU PHARMACEUTICAL, published 2025).
